Results published in patent publication US20050065080A1, “Use of leptin in fertility” (priority 2001, published 2005).

How the values were obtained:
[1] = tested on: LH; assay: Serum LH radioimmunoassay in antide-treated mice; format: in vivo, mouse
Procedure: Leptin induces the GnRH release from the Hypothalamus, which in turn releases FSH and LH from the Pituitary glands (Yu et al. 1997). To test if the follicle development and ovulation induced in the antide-treated C57BL mice and ob/ob mice by leptin is mediated by LH release, serum LH as well as progesterone, which is an LH-induced marker was measured. Measurement of plasma murine LH (mLH) and progesterone were carried out with specific radioimmunoassays. Progesterone was determined in mouse sera by RIA (Kohen 1975). LH was determined in mouse by a specific RIA, obtained trough the National Hormone & Pituitary Program, harbor-UCLA Medical Center (Torrance, California). The levels of mLH were below 0.2 ng/ml in all cases (Table 2). The levels of LH remained low throughout the follicular growth and ovulation in leptin-treated mice. However, it is difficult to detect the LH surge even in positive controls. Therefore, measurement of the LH-induced serum progesterone serve as a more reliable marker of circulating LH.

[2] = tested on: ob/ob mice; assay: Follicular development in antide-treated ob/ob mice (hematoxylin-eosin ovarian sections); format: in vivo, mouse; conditions: for follicular growth in ovarian sections: single agent
Procedure: The effect of leptin in follicular development was studied in ob/ob mice that were treated with the GnRH antagonist antide (Phillips et al. 1988). It is therefore expected that following administration of leptin to antide treated mice, as opposed to non-treated mice, release of LH or FSH from the pituitary gland will not occur.
8-10 week-old obese C57B1-ob/ob female mice were all injected (time 0) with antide (1.25 μg/g body weight). Mice were divided into several groups. A control group was injected with saline only. A second group was injected with murine leptin (ip,2×5 μg/g body weight purchased from R&D systems) at times 0 and 9 h. A third group was injected with pregnant mare serum gonadotropins (PMSG, 3 IU/mice, sc). A fourth group received a combination of both PMSG and leptin. Mice were sacrificed at 9, 24, and 48 and 72 h following the first treatment, the ovaries were excised, paraffin-fixed and stained with hematoxylin-eosin to visualize follicular and ovarian growth.

[3] = tested on: C57BL/6 mice; assay: Ovulation induction in antide-treated prepubertal C57BL/6 mice (oocyte count); format: in vivo, mouse; conditions: for Oocyte count in C57BL/6 mice: antide-treated, PMSG at 0 h, leptin or hCG at 48 h, oocytes counted at 72 h, range
Procedure: (§1) In the present example, ovulation was studied in ob/ob mice and in prepubertal C57BL/6 mice. All mice were treated with antide to prevent induction of LH by leptin. […] Following the various treatments, mice were sacrificed and oocytes were collected from the ampoule at 72 hours from the first injection and counted.
(§2) Similarly a group of ob/ob mice were injected with PMSG (3 IU/animal) and after 48 h with leptin (2×5 μg/g weight). […] Ovulation was monitored by counting oocytes in the oviducts under the microscope.

[4] = tested on: ob/ob mice; assay: Ovulation induction in antide-treated ob/ob mice (oocyte count); format: in vivo, mouse; conditions: for Oocyte count in ob/ob mice: antide-treated, PMSG at 0 h, leptin or hCG at 48 h, oocytes counted at 72 h, range
Procedure: as §1, §2

[5] = tested on: uterus; assay: Appearance of the uterus in treated mice; format: in vivo, mouse; conditions: for uterus distension and hyperemia: after PMSG, or PMSG followed by hCG or leptin, leptin: ob/ob mice that ovulated
[6] = tested on: progesterone; assay: Serum progesterone radioimmunoassay in ob/ob and C57BL/6 mice; format: in vivo, mouse; conditions: PMSG at time 0, agent at 48 h, RIA at 72 h; FIG. 1
Procedure: Mice were treated with PMSG at time 0 and the indicated agent at 48 h. Progesterone was determined by RIA at 72 h in sera of C57BL/6 mice (grey bars) and of ob/ob mice (open bars).

[7] = tested on: ADAMTS-1; assay: ADAMTS-1 expression in cultured pre-ovulatory follicles (quantitative RT-PCR); format: cell-based, mouse; conditions: 17 h; leptin 250 ng/ml or hCG 1 IU; normalized to ribosomal protein L19; FIG. 2
Procedure: Pre-ovulatory follicles were removed, cultured and further treated for 17 h in the absence or presence of either leptin (250 ng/ml) or hCG (1 IU). Total RNA was isolated from the follicles and subjected to quantitative RT-PCR using the LightCycler™ (Roche diagnostics). The primers used for the detection of murine ADAMTS-1 transcripts were:

[8] = tested on: Cathepsin L; assay: Cathepsin L expression in cultured pre-ovulatory follicles (quantitative RT-PCR); format: cell-based, mouse; conditions: 17 h; not statistically significant
Excerpt: Total RNA was isolated from the follicles and subjected to quantitative RT-PCR with specific primers for two proteases, ADAMTS-1 and Cathepsin L. The PCR products were resolved in agarose gel electrophoresis and scanned. The RNAs levels of ADAMTS-1 were normalized to the RNAs levels of ribosomal protein
To test whether leptin can induce the expression of ADAMTS-1 and cathepsin L by acting directly on the ovary, in vitro experiments were preformed on pre-ovulatory follicles obtained from 21 days old C57BL/6 mice treated with PMSG (3 IU/animal) for 48 h. […] Total RNA was isolated from the follicles and subjected to quantitative RT-PCR using the LightCycler™ (Roche diagnostics). The primers used for the detection of murine ADAMTS-1 transcripts were: […]
The RNAs levels of ADAMTS-1 and cathepsin L detected in agarose gel electrophoresis of the PCR products were normalized to the RNAs levels of murine ribosomal protein L19

[9] = antide + PMSG (48 h) then leptin or hCG (24 h)

pregnant mare serum gonadotropins [PMSG, reference compound]
Serum LH ([1]; antide + PMSG, 60 h): 0.2 ng/mL
Serum LH ([1]; antide-treated mice, 72 h): 0.09 ± 0.01 ng/mL
follicular growth in ovarian sections ([2]; antide-treated ob/ob mice): large antral follicles were formed at 72 h
Oocyte count in C57BL/6 mice [3]: 0
Oocyte count in ob/ob mice [4]: 0 oocytes per mouse
uterus distension and hyperemia [5]: maximal distension

antide [reference compound]
Serum LH ([1]; antide-treated mice, 72 h): 0.04 ± 0.01 ng/mL
follicular growth in ovarian sections ([2]; antide-treated ob/ob mice): only early stages of follicular growth
Oocyte count in C57BL/6 mice [3]: 0

B1: leptin (protein, UniProt P41160 22-167, looked up)
Leptin: VPIQKVQDDTKTLIKTIVTRINDISHTQSVSAKQRVTGLDFIPGLHPILSLSKMDQTLAVYQQVLTSLPSQNVLQIANDLENLRDLLHLLAFSKSCSLPQTSGLQKPESLDGVLEASLYSTEVVALSRLQGSLQDILQQLDVSPEC
notes: murine leptin purchased from R&D systems; adipocyte-secreted protein encoded by the obese (ob) gene
serum progesterone [6]: lack of significant progesterone synthesis
Serum LH ([1]; antide + PMSG 48 h then leptin 12 h): 0.17 ± 0 ng/mL
Serum LH ([1]; antide + PMSG 48 h then leptin 24 h): 0.057 ± 0.01 ng/mL
Serum LH ([1]; antide + leptin, 9 h): 0.05 ng/mL
Serum LH ([1]; antide + leptin, 24 h): 0.06 ± 0.01 ng/mL
Serum LH ([1]; antide + leptin, 48 h): 0.07 ± 0.04 ng/mL
Serum LH ([1]; antide-treated mice, 72 h): 0.04 ± 0.01 ng/mL
ovarian growth ([2]; antide-treated ob/ob mice, concomitant PMSG and leptin, after 72 h): an interstitial cell growth and further ovarian growth were observed
time at which large follicles could be observed after initiation of treatment ([2]; antide-treated ob/ob mice, as early as): 9 h
follicular growth in ovarian sections ([2]; antide-treated ob/ob mice): induced rapid follicular growth
corpora lutea in the ovaries ([2]; ob/ob mice, PMSG at time 0 and leptin instead of hCG at 48 h, seen at 72 h): corpora lutea were also seen
induction of ADAMTS-1 RNA [7]: significant induction
mice ovulated, C57BL/6 mice [3, 9]: 7 out of 7 mice
Oocyte count in C57BL/6 mice [3]: (2-7)
ovulation (oocytes in the oviducts) ([4]; PMSG then agent at 48 h, summary of Table 1): ovulation was observed
mice ovulated, ob/ob mice [4, 9]: 3 out of 5 mice ovulated
Oocyte count in ob/ob mice [4]: (range 1-6 oocytes per oocytes per mouse
uterus distension and hyperemia [5]: remained hyperemic, exhibiting maximal distension
uterine features ([5]; antide-treated C57BL/6 mice): same uterine features, were also observed
uterus hyperemia ([5]; leptin in the absence of PMSG): rendered the uterus hyperemic
induction of Cathepsin L RNA [8]: Marginal induction
